# According to paper PMC9435672, “Structure of angiogenin dimer bound to double-stranded RNA”:
# B1: N19-RNA duplex (dsRNA)
# RNA 1: GCCCGCCUGUCACGCGGGC
# RNA 2: GCCCGCCUGUCACGCGGGC
# Target: angiogenin H114A (hAng, RNase 5) (Homo sapiens, UniProt P03950 25-147, H138A)
# Test: X-ray crystallography; sequence-independent backbone contacts except Arg24 (C38, C32); RNA does not reach active site; crystals at 277 K; Complex: 20 mM Tris pH 8.0, 120 mM NaCl, on ice 30 min, RNA:protein 1.2:1; crystallization reservoir 200 mM NaCl, 20% PEG 6000, 100 mM HEPES pH 7.0, 277 K
# Details: protein: recombinant; tags: none stated (pET-26b(+)); chain copies: 2; self-duplex of 2 identical strands, blunt; designed as stem-loop but duplex in crystal
# angiogenin H114A (hAng, RNase 5), sequence (P03950 25-147 H138A): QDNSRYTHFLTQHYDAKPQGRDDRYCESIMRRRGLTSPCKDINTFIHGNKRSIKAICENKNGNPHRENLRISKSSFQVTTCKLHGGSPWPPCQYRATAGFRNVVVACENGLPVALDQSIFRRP
binder,measurement,value
B1,binding result,binds
